Experimental data: patent US20160052993A1

Tests used:
[1] = target: single-chain human FcRn, FLAG/His-tagged (human) (UniProt P61769); assay: ELISA, HSA variant immobilised, schFcRn titrated, pH 5.5 (asterisk)
[2] = target: hFcRn (human) (UniProt P61769); assay: ELISA; settings: other; remark: other sources report otherwise
Sequence of hFcRn (human) (P55899 24-297, chain 1 of 2): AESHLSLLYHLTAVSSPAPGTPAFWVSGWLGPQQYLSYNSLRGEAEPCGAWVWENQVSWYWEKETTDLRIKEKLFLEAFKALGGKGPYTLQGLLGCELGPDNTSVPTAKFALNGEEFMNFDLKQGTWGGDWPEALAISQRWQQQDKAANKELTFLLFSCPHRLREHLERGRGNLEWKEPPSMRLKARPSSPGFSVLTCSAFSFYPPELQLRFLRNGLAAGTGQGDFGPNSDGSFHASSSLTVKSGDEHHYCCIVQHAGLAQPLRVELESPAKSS
Sequence of hFcRn (human) (P61769 21-119, chain 2 of 2): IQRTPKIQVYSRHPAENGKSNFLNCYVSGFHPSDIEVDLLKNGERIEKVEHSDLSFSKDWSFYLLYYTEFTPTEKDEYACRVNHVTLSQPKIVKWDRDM

| Substance | Kd [1] [nM] | Kd [2] [nM] |
| --- | --- | --- |
| HSA18 (V424I) (from UniProt P02768 25-609) | 250 | – |
| HSA13+H510F (from UniProt P02768 25-609) | – | 32 |
| HSA13+H535F (from UniProt P02768 25-609) | – | 91.8 |
